Measurements: paper PMC11407766, “OsNF-YB7 inactivates OsGLK1 to inhibit chlorophyll biosynthesis in rice embryo”

Key:
OsNF-YB7-His = target: T1, OsNF-YB7-His (Oryza sativa, UniProt A6BLV7 1-254); assay: EMSA; Beyotime EMSA/Gel-Shift kit (GS009), manufacturer's conditions; 2 or 4 uM protein in Figure 6G; buffer, salt, pH and temperature not stated; settings: protein: recombinant, tags: His (pET-28a), blunt
T1 sequence: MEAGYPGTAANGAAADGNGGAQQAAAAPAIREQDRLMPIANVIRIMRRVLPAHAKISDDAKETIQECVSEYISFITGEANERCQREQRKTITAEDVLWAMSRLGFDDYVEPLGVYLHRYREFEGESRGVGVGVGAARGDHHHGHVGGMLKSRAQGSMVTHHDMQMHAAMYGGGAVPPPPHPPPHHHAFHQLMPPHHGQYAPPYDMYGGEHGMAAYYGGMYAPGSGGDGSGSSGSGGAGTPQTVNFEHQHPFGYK

OsGLK1-MBP = target: T2, OsGLK1-MBP (Oryza sativa, UniProt Q5Z5I4 1-455); assay: as above; settings: protein: recombinant; tags: MBP (pMAL-c5X); label: biotin (3' hydroxyl end of both strands); blunt
T2 sequence: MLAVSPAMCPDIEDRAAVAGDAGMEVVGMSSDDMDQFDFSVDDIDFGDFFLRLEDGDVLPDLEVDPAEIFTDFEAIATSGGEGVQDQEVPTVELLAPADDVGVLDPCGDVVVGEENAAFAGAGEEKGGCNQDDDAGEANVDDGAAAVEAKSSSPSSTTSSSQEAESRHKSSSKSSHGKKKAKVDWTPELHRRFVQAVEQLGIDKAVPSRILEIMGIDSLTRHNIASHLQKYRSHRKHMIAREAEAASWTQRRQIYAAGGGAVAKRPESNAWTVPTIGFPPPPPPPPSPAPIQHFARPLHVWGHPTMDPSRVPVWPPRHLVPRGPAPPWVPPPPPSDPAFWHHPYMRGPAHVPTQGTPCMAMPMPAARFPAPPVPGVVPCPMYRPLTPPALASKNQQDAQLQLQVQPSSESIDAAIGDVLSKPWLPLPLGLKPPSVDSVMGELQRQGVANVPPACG

[1] = label: biotin (3' hydroxyl end of both strands)

Binder	binding result (OsNF-YB7-His; [1])	binding result (OsGLK1-MBP)	binding result (OsNF-YB7-His; label: biotin)
OsPORA promoter probe (dsDNA) DNA 1: TACGAAAAAATATCCCACCACGTGTCGCTTTCACAGGACAAT DNA 2: ATTGTCCTGTGAAAGCGACACGTGGTGGGATATTTTTTCGTA	binds	binds	
OsGLK1 promoter probe (dsDNA) DNA 1: TTTTGCAGAAGCGACCAAGCTGCACTTGCGCTCGCGGACAAGGCAACCCA DNA 2: TGGGTTGCCTTGTCCGCGAGCGCAAGTGCAGCTTGGTCGCTTCTGCAAAA			no binding
OsLHCB4 promoter probe (dsDNA) DNA 1: CCCAATCCCAGCCCTCCACGTGTCACCAACCCCATGGC DNA 2: GCCATGGGGTTGGTGACACGTGGAGGGCTGGGATTGGG	binds	binds	
